Test results reported in article PMC5662768 (Scientific Reports, 2017).

Molecular target: T1, glycosylated extracellular domain of human CD38 (aa 46-300) (Homo sapiens, UniProt P28907, glycosylation sites intact (glycosylated))
T1 construct: CD38, human, extracellular domain aa 46-300 with intact glycosylation sites; Amine-coupled to AR2G biosensors in the BLI experiments; also called recombinant human CD38; ectodomain of human CD38; source: secretory protein from the pCSE2.5 vector
Experiment: BLI; Octet RED384; recombinant human CD38 amine-coupled to AR2G biosensors; 100 nM and 1 uM nanobody, 5 min association, 10 min dissociation; 25 C; HBS-EP+ pH 7.4; fit 1:1; off-rates only
Details: both partners purified

Binder | koff [s⁻¹]
CD38-specific nanobody MU1053 (family 14), monovalent, from HEK-6E cells (VHH, structure of MU1053 with CD38 is in PDB 5F1O (nanobody chain); also called l-15.3a; source: HEK-6E, transiently transfected (pCSE2.5), purified (Ni-NTA); not shown: His6, C-terminal, kept; Myc, C-terminal, kept) VHH: DVQLQESGGGLVQAGGSLRLSCTGSGRTFRNYPMAWFRQAPGKEREFVAGITWVGASTLYADFAKGRFTISRDNAKNTVYLQMNSLKPEDTAVYSCAAGRGIVAGRIPAEYADWGQGTQVTVSS | 0.0009
single chain variable fragment (scFv) of daratumumab (scFv, V domains shown, VH domain of daratumumab; 15GS linker; VL domain of daratumumab; Order VH - linker - VL as the methods tell it; also called Dara scFv; Daratumumab scFv; source: HEK-6E, transiently transfected (pCSE2.5)) VH: EVQLLESGGGLVQPGGSLRLSCAVSGFTFNSFAMSWVRQAPGKGLEWVSAISGSGGGTYYADSVKGRFTISRDNSKNTLYLQMNSLRAEDTAVYFCAKDKILWFGEPVFDYWGQGTLVTVSS VL: not shown | 0.0044
